According to patent US10801027B2, “Inhibitors of SRSF1 to treat neurodegenerative disorders” (University of Sheffield, priority 2016, dated 2020):
Changes are numbered by the printed parent chain.

T1: NXF1 (Mus musculus, UniProt Q99JX7)
T1 construct: endogenous in cells; host or cells: Neuro-2a (N2A)
T1 sequence (Q99JX7 1-618): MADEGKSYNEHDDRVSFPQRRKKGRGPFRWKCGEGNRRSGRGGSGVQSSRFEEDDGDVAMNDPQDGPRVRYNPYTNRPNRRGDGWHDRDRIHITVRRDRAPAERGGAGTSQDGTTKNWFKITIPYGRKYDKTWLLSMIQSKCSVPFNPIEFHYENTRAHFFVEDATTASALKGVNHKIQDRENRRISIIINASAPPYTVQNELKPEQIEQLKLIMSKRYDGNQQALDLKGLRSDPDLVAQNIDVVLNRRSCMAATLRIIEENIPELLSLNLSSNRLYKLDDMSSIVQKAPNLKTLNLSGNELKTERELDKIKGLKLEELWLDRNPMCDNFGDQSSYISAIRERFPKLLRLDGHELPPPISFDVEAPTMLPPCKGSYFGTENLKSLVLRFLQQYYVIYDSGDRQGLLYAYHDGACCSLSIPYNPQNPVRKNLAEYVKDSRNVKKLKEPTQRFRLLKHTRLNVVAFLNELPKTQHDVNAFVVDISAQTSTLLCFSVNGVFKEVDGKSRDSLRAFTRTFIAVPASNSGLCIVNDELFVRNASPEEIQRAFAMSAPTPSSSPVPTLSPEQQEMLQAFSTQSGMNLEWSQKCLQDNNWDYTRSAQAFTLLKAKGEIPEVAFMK

B1: SRSF1-m2: FLAG-tagged SRSF1 11-196 double R117,118A mutant (protein)
chain: AGNNDCRIYVGNLPPDIRTKDIEDVFYKYGAIRDIDLKNRRGGPPFAFVEFEDPRDAEDAVYGRDGYDYDGYRLRVEFPRSGRGTGRGGGGGGGGGAPRGRYGPPSAASENRVVVSGLPPSGSWQDLKDHMREAGDVCYADVYRDGTGVVEFVRKEDMTYAVRKLDNTKFRSHEGETAYIRVKVDG
modifications: left off: small tags and cut ends
notes: FLAG-tagged SRSF1 11-196 double R117,118A mutant
B2: SRSF1 11-196 wild type: FLAG-tagged SRSF1 amino-acids 11-196 wild type (protein)
chain: B1 chain with A107R, A108R
modifications: left off: small tags and cut ends
notes: FLAG-tagged SRSF1 amino-acids 11-196 wild type

Experiments:
[1] = MND patients; cited from earlier work
NXF1 = target: T1, NXF1; test: Anti-FLAG co-immunoprecipitation of endogenous NXF1 in N2A cells; assay type: binding; settings: FLAG-tagged protein, 48 h
Method: Cells were split into 1×10 cm plates/treatment (1.5×10^6 cells/plate) and transfected with 15 μg p3×FLAG, p3×FLAG/SRSF1 (11-196), p3×FLAG/SRSF1 (11-196)-m2 or p3×FLAG/SRSF1(11-196)-m4 using 3 μg PEI/1 μg DNA and one tenth medium volume OptiMEM.
Proteins were extracted from Neuro-2a cells 48 hours after transfection. Cells were briefly washed in ice cold PBS, scraped into 500 μl ice cold lysis buffer, passed through a 21G gauge needle 10 times and left to lyse on ice for 10 minutes. Lysed cells were cleared by centrifugation at maximum speed at 4° C. for five minutes and protein extracts were quantified using Bradford Reagent. 2 mg of total protein in 1 ml lysis buffer was incubated with 30 μl anti-FLAG® M2 affinity resin slurry (Sigma A2220) (which had been blocked overnight with 1% BSA in IP lysis buffer) for 2 hours at 4° C. on a rotating wheel. […] 30 μg total protein and 15 μl captured protein complexes were resolved by SDS-PAGE, electroblotted onto nitrocellulose membrane and probed using FLAG, NXF1 clone 53H8 [1:2000] (Abcam ab50609) and […]-tubulin.

[2] = system: poly-Gly-Pro and poly-Gly-Ala DPRs; test: Western blot of RAN-translated DPRs in N2A cells; assay type: cell-based, mouse; settings: G4C2×38 or C4G2×39 constructs, 72 h
Method: Neuro-2a (ATCC) cells were cultured in Dulbecco's Modified Eagle Medium (Sigma) supplemented with 10% fetal bovine serum [FBS] (Gibco), 5 U/ml Penstrep (Lonza) and 5 mM sodium pyruvate. Cells were maintained in a […] incubator with 5% CO2. 75,000 Neuro-2a cells were split into each well of 24-well plates and transfected for 72 h with 500 ng pcDNA6.2-GW/EmGFP-Control miR RNAi (ThermoFisher) or pcDNA6.2-GW/EmGFP-mouse SRSF1 miR1+2 RNAi and 200 ng pcDNA 3.1/RAN-G4C2×38-sense or RAN-C4G2×39-antisense using 3 μg PEI/1 μg DNA and one tenth medium volume OptiMEM (ThermoFisher).
HEK cells were transfected for 72 h with 650 ng pcDNA6.2-GW/EmGFP-Control miRNA, pCDNA6.2-GW/EmGFP-human SRSF1 miR1+2 RNAi or LV-EmGFP-human SRSF1 miR1+2 RNAi constructs and 50 ng p3×FLAG/human-SRSF1 using 3.5 μg PEI/ml media and one tenth medium volume of OptiMEM. Neuro-2a cells were split into each well of 24-well plates (75,000 cells/well) and transfected for 72 h with 350 ng pcDNA6.2-GW/EmGFP-Control miR RNAi (ThermoFisher), pcDNA6.2-GW/EmGFP-mouse SRSF1 miR1+2 RNAi, p3×FLAG, p3×FLAG/SRSF1 (11-196), p3×FLAG/SRSF1 (11-196)-m2 or p3×FLAG/SRSF1 (11-196)-m4 and 350 ng pcDNA 3.1/RAN-G4C2×38-sense or RAN-C4G2×39-antisense using 3 μg PEI/1 μg DNA and one tenth medium volume OptiMEM.
Proteins were extracted from HEK or Neuro-2a cells 72 hours after transfection. […] Protein extracts were quantified using Bradford Reagent (BioRAD), resolved by SDS-PAGE, electroblotted onto nitrocellulose membrane and probed using the relevant primary antibody. […] (kindly received from Prof Stuart Pickering Brown) primary antibodies were detected with horseradish peroxidase (HRP)-conjugated rabbit secondary antibody [1:5000 dilution] […] (kindly provided from Prof Dieter Edbauer) primary antibodies were detected using HRP-conjugated mouse secondary antibody [1:5000 dilution] […] For dot blot analysis, 50 μg total protein extracts prepared in ice-cold lysis buffer were loaded onto a nitrocellulose membrane using a microfiltration apparatus (Biorad) and analysed by western immunoblotting as previously described.

Molecule	life extension [1]	co-immunoprecipitation of endogenous NXF1 (NXF1)	effect on RAN translation / production of sense and antisense DPRs [2]
Nc1nc2ccc(OC(F)(F)F)cc2s1 [riluzole]	around 6 months	–	–
B1	–	specifically immunoprecipitated	little effect
B2	–	specifically immunoprecipitated	no
